T1: telitacicept
T1 construct: TACI-Fc fusion protein drug; also called Tai ai; TACI-Fc fusion protein
T1 chain: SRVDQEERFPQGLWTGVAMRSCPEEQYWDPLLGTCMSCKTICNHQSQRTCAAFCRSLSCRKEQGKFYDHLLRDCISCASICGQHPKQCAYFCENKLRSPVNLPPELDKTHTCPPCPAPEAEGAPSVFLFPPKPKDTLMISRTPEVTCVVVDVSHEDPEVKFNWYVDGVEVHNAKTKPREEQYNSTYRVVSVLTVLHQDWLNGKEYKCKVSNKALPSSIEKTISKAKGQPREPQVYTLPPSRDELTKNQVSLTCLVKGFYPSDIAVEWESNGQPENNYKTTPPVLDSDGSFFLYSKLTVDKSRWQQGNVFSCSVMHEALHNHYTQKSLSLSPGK

B1: antibody 1B11D2 (antibody, mouse IgG1, kappa, V domains shown)
VH: EVQLQQSGPELVKPGASVKISCKTSGYTFTEFSMHWVQQSHGKSLEWIGGINPNHGGSSYNQKFKGKATLTVDKSSSTAYMELRSLTSEDSAVYYCARRGDYYGNLYYAMDYWGQGTSVTVSS
VL: SIVMTQTPKFLLVSVGDSITITCKASQSVSNDVVWYQQKPGQSPKLLIYYASNRYTGVPDRFTGSGYGTDFTFTITTVQAEDLAVYFCQQDYSSPWAFGGGTKLEIKR
notes: Mouse hybridoma antibody, purified from the culture supernatant of cell line 1B11D2-1; The printed heavy and light chains start with what looks like a leader peptide (MGWSW..., MKSQT...); also called 1B11D2-1 (hybridoma cell line / culture supernatant); TACI antibody (1B11D2)
B2: antibody 7G12F8 (antibody, mouse IgG1, kappa, V domains shown)
VH: EVQLQQSGPELVRPGASVKKSCKTSGYTFTAYALHWVKQSHGTSLEWIGGINPNHGGVSYNQKFKDKATLTVDKSSSTAYMELRSLTSEDSAVYYCARFRWDLYYGMDYWGQGTSVIVAS
VL: QIVLTQSPAIISVSSGEKVTMPCSDNSNMIYMYWNLWKPGTSPKRWIYDTSRLASGVPARFSGSGFGTSFSLTVSSMEAEDAATYYCHQRSIYSWTFGGGTKLEIKR
notes: Mouse hybridoma antibody, purified from the culture supernatant of cell line 7G12F8-1; The printed chains seem to include a leader peptide, but no cleavage site is stated; also called 7G12F8-1 (hybridoma cell line / culture supernatant)
B3: antibody 12C9F3 (antibody, mouse IgG1, kappa, V domains shown)
VH: EVQLQQSGPELVKPGASVKISCKTSGYTFTEYAMHWVKQSHGKSLEWIGGINPNHGGTSNNQKFKGKATLTVDKSSSTAYMDFRSLTSEDSAVYYCARWGTDPFFAYWGQGTLVTVSA
VL: DIVMTQSHKFMSTSVGDRVSITCKASQDVSTAVAWYQQKPGQSPKLLIYWASTRHTGVPDRFTGSGSGTDYTLTITSVQAEDLTLYYCHQHYAPPWTFGGGTKLEIKR
notes: Mouse hybridoma antibody, purified from the culture supernatant of cell line 12C9F3-1; The printed chains seem to include a leader peptide, but no cleavage site is stated; also called 12C9F3-1 (hybridoma cell line / culture supernatant)

Legend:
telitacicept [1] = molecular target: T1, telitacicept; assay: BLI (Octet RH16); biotinylated 1B11D2 on SA biosensors, telitacicept as analyte; kinetic fit
Description: An Octet RH16 molecular interaction analyzer (Sartorius) was used. An appropriate amount of antibody 1B11D2 reacted with EZ-Link Sulfo-NHS-LC-LC-Biotin ([…]) at room temperature for 30 min followed by centrifugation with a Zeba spin desalting column to collect the biotinylated antibody 1B11D2.
The biotinylated antibody 1B11D2 was immobilized on Octet SA Biosensors ([…]) and telitacicept at various concentrations was used as the analyte. The detection curve was fitted by kinetic analysis to obtain the results.

telitacicept [2] = molecular target: T1, telitacicept; assay: competition ELISA; BLyS coated; 30 ng/ml telitacicept pre-incubated with 10-fold diluted supernatant; telitacicept bound to BLyS read with anti-human IgG Fc-HRP
Description: (§1) The hybridoma cells were cultured, and the supernatants were used for enzyme-linked immunosorbent assay (ELISA). BLyS (R&D Systems) was coated on a 96-well microplate and incubated at 4° C. overnight. The plate was blocked with 300 μl of 3% BSA-PBST per well and incubated at 37° C. for 3 h. The supernatants were diluted at ratios of 10-fold, 100-fold and 1000-fold with PBST and separately incubated with 30 ng/ml telitacicept for a given period. These mixtures were then added to the 96-well plate at 100 μl per well and incubated at 37° C. for 1 h. Goat anti-human IgG Fc-HRP (1:5000 dilution) was added at 100 μl per well and incubated at 37° C. for 1 h. 100 μL of substrate per well was added for color development, and the absorbance was read at 450 nm and 655 nm. Antibodies with high activity were screened based on the difference in absorbance between 450 nm and 655 nm, respectively.

telitacicept [3] = molecular target: T1, telitacicept; assay: competition ELISA; BLyS coated; 30 ng/ml telitacicept pre-incubated with 100-fold diluted supernatant; telitacicept bound to BLyS read with anti-human IgG Fc-HRP
Description: as §1

telitacicept [4] = molecular target: T1, telitacicept; assay: competition ELISA; BLyS coated; 30 ng/ml telitacicept pre-incubated with 1000-fold diluted supernatant; telitacicept bound to BLyS read with anti-human IgG Fc-HRP
Description: as §1

Row | Binder | Kd (telitacicept [1]) [nM] | koff (telitacicept [1]) [s⁻¹] | kon (telitacicept [1]) [M⁻¹ s⁻¹] | Absorbance (450 nm - 655 nm) (telitacicept [2]) | Absorbance (450 nm - 655 nm) (telitacicept [3]) | Absorbance (450 nm - 655 nm) (telitacicept [4])
1 | B1 | 0.325 | 0.000105 | 323000 | 0.016 | 0.141 | 0.454
2 | B2 | – | – | – | 0.057 | 0.215 | 0.448
3 | B3 | – | – | – | 0.082 | 0.242 | 0.443
